Results taken from patent US20110300156A1 (Genmab, published 2011).

T1: murine tissue factor (TF) on transfected HEK293F cells (murine, UniProt P20352 29-294)
T1 construct: whole, on cells; also called murine TF; TFmm
T1 sequence (looked up): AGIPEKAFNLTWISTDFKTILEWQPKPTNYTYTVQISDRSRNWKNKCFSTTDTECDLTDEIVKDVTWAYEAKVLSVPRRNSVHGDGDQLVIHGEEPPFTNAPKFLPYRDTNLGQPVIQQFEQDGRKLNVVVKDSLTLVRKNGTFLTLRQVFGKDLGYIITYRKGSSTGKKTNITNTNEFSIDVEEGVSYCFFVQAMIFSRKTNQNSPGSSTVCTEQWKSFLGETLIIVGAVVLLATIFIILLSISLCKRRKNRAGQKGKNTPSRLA

B1: anti-TF HuMab 111 (antibody, V domains shown)
VH: QVQLVESGGGVVQPGRSLRLSCAGSGFTFNRYAMYWVRQAPGKGLDWVAVISNDGINKYYADSVKGRFTISRDNSKNTLYLQMNSLRAEDTAVYYCARDHTMVRGAFDYWGQGTLVTVSS
VL: EIVLTQSPATLSLSPGERATLSCRASQSVSSYLAWYQQKPGQAPRLLIYDASNRATGIPARFSGSGSGTDFTLTISSLEPEDFAVYYCQQRSNWPLTFGGGTKVEIK
notes: Human monoclonal antibody from HuMab mice
B2: anti-TF HuMab 114 (antibody, V domains shown)
VH: QVQLVESGGGVVQPGRSLRLSCVASGFTVSNDGMHWVRQAPGKGLEWVALIWYDGVNKNYADSVKGRFTISRDKSKNTLYLQMNSLRAEDTAVYYCARRPGTFYGLDVWGQGTTVTVSS
VL: not shown
notes: as for B1
B3: anti-TF HuMab 101 (antibody, V domains shown)
VH: EVQLLESGGGLVQPGGSLRLSCAASGFTFSNYAMSWVRQAPAKGLDWVSGISGSGVTTYYADSVKGRFTISRDNSKDTLYLQMNSLRAEDTAVYFCAKTPWGYYFDYWGQGILVAVSS
VL: DIQMTQSPSSLSASVGDRVTITCRASQGISSWLAWYQQKPEKAPKSLIYAASSLQSGVPSRFSGSGSGTDFTLTISSLQPEDFATYYCQQYNSYPLYTFGQGTKLEIK
notes: as for B1

What was measured:
[1] = target: T2, human tissue factor (TF), membrane-bound on cells (human, UniProt P13726 33-295); assay: FACS, Bx-PC3 cells
T2 construct: whole, on cells; also called cellular TF
Procedure: (§1) Cells were resuspended in PBS (2×10⁶ cells/ml), put in 96-well V-bottom plates (50 μl/well). 50 μl of serially diluted HuMab in FACS buffer (PBS supplemented with 0.1% BSA and 0.02% Na-azide) was added to the cells and incubated for 30 minutes on ice. After washing three times with FACS buffer, 50 μl of phycoerythrin (PE)-conjugated goat anti-human IgGFc (Jackson ImmunoResearch), diluted 1:100 in FACS buffer, was added. After 30 minutes on ice (in the dark), cells were washed three times, and specific binding of the HuMabs was detected by flow cytometry on a FACSCalibur (BD Biosciences). HuMab-KLH was used as a negative control. Mouse anti-TF followed by PE-conjugated anti-mouse IgGFc was used as positive control. Binding curves were analyzed using non-linear regression (sigmoidal dose-response with variable slope) using GraphPad Prism V4.03 software (GraphPad Software, San Diego, Calif., USA).

[2] = target: T1, murine tissue factor (TF) on …; assay: FACS on transfected HEK293F cells, 30 µg/mL antibody [panel N]
[3] = target: T2, human tissue factor (TF), …; assay: FACS, TF transfected CHO cells (S1015-TF)
Procedure: as §1

[4] = target: T2, human tissue factor (TF), …; assay: FACS, A431 cells, 30 µg/mL
Procedure: as §1

[5] = target: T2, human tissue factor (TF), …; assay: cell-based or functional assay
[6] = target: T2, human tissue factor (TF), …; assay: FACS, MDA-MB-231 cells, 30 µg/mL
Procedure: as §1

[7] = target: T2, human tissue factor (TF), …; assay: FACS, MDA-MB-231 cells
Procedure: as §1

[8] = target: T2, human tissue factor (TF), …; assay: FACS, Bx-PC3 cells, 30 µg/mL
Procedure: as §1

[9] = target: T2, human tissue factor (TF), …; assay: FACS, A431 cells
Procedure: as §1

[10] = target: T2, human tissue factor (TF), …; assay: FACS, TF transfected CHO cells (S1015-TF), 7.5 µg/mL
Procedure: as §1

[11] = target: T2, human tissue factor (TF), …; assay: cell-based or functional assay; remark: listed apart in the source
[12] = target: T3, TFECDHis (extracellular domain of tissue factor, amino acid 1-251, with C-terminal His tag) (human, UniProt P13726 33-251); assay: competition ELISA, inhibition of FVIIa (100 nM) binding to coated TFECDHis
T3 construct: range 1-251; The stated range 1-251 starts at residue 1 of NP-001984; also called extracellular domain of TF
Procedure: ELISA plates were coated overnight with TFECDHis (0.5 μg/mL, 100 μL per well). Plates were emptied, blocked with PBS containing 2% (v/v) chicken serum (1 hour, RT), and emptied again. […] Plates were washed and incubated with swine-anti-rabbit IgG-HRP antibody (1:2,500; DAKO). After washing, the immune complexes were visualized using ABTS as a substrate.

[13] = target: T2, human tissue factor (TF), …; assay: FACS on MDA-MB-231 cells (~900.000 TF molecules/cell) [panel MDA-MB-231 cells]
Procedure: as §1
(§2) Binding of anti-TF HuMabs to membrane-bound TF on cell lines expressing different levels of TF was determined by FACS analysis, essentially as described supra. Mouse anti-TF antibody followed by PE-conjugated anti-mouse IgGFc was used as a positive control. Fluorescence was measured on a FACSCantoII. Binding curves were analyzed essentially as described supra, using GraphPad Prism 5 software. The amount of TF molecules on cell lines was determined by Qifi kit (Dako, Glostrup, Denmark), according to the manufacturer's instructions.

[14] = target: T3, TFECDHis (extracellular domain of …); assay: SPR avidity format: TFECDHis immobilized, bivalent HuMab as analyte (printed as avidity nM)
Procedure: Antibody binding to TF was analyzed by surface plasmon resonance in a BIAcore 3000 (GE Healthcare). TFECDHis was used for the analysis. HuMab antibodies (500 resonance units) were immobilized on the CM-5 sensor chip according to the procedure recommended by the manufacturer. Briefly, after surface activation by EDC and NHS HuMab antibody was injected over the activated CM-5 surface in 10 mM sodium-acetate, pH ranging from 4.0 to 5.5 at 5 μl/min. followed by 1 M Ethanolamine for deactivation. Concentration series of TFECDHis in HBS-EP buffer were injected over the immobilized antibodies at a flow rate of 30 μl/min for 180 sec. Regeneration of the HuMab surface was performed by injection of 10 mM Glycine-HCl pH 2.0 or 10 mM sodium acetate pH 3.0. Kinetic analysis was performed using double reference subtraction and model 1:1 (langmuir) binding analysis.
TF (TFECDHis) binding to TF-specific HuMabs was determined essentially as described above, with TFECDHis being immobilized on the CM-5 sensor chip (300 resonance units), and concentration series of Humab antibodies used for kinetic analysis. Kinetic analysis was performed using double reference subtraction and model 1:1 (langmuir) binding analysis.

[15] = target: T2, human tissue factor (TF), …; assay: cell-based or functional assay; remark: listed apart in the source
TF (Innovin) [16] = target: T4, TF (Innovin) (UniProt P13726 33-295, limits assumed); assay: cell-based or functional assay
[17] = target: T2, human tissue factor (TF), …; assay: FACS on AsPC-1 cells (~175.000 TF molecules/cell) [panel AsPC-1 cells]
Procedure: as §1, §2

[18] = target: T1, murine tissue factor (TF) on …; assay: FACS on transfected HEK293F cells, 30 µg/mL antibody [panel O]
[19] = target: T3, TFECDHis (extracellular domain of …); assay: ELISA, coated TFECDHis, mean of 3
Procedure: The specificity of the obtained anti-TF HuMabs was evaluated by ELISA. ELISA plates (Microlon; Greiner Bio-One) were coated overnight at +4° C. with 0.5 μg/mL of TFECDHis in PBS, pH 7.4. Coated ELISA plates were emptied and blocked for one hour at room temperature with 2% (v/v) chicken serum (Gibco, Paisley, Scotland) in PBS and washed with PBS containing 0.05% Tween 20 (PBST). Subsequently, HuMabs, serially diluted in PBSTC (PBS supplemented with 2% (v/v) chicken serum and 0.05% (v/v) Tween-20), were incubated for 1 hr at RT under shaking conditions (300 rpm). Bound HuMabs were detected using HRP-conjugated goat-anti-human IgG antibodies (Jackson ImmunoResearch) diluted 1:5,000 in PBSTC, which were incubated for 1 hr at RT under shaking conditions (300 rpm). […] HuMab-KLH (a human monoclonal antibody against KLH (keyhole limpet haemocyanin)), was used as a negative control. Mouse anti-human TF (ERL) was used as positive control (HRP labeled anti-mouse IgG as conjugate). Binding curves were analyzed using non-linear regression (sigmoidal dose-response with variable slope) using GraphPad Prism V4.03 software.

[20] = target: T1, murine tissue factor (TF) on …; assay: FACS on transfected HEK293F cells, 30 µg/mL antibody [panel L]
TF (Innovin) [21] = target: T4, TF (Innovin); assay: cell-based or functional assay; remark: listed apart in the source

| Binder | EC50 [1] [nM] | EC50 [3] [nM] | Max MFI [4] | EC50 of ADCC, A431 cells [5] [nM] | EC50 of ADCC, MDA-MB-231 cells [5] [nM] | Max MFI [6] | EC50 [7] [nM] | Max MFI [8] | EC50 [9] [nM] | Max MFI [10] | % max inhibition of FVIIa induced ERK phosphorylation (A431) [11] [%] | IC50, inhibition of FVIIa induced ERK phosphorylation (A431) [11] [nM] | max inhibition [12] [%] | IC50, inhibition of FVIIa induced IL-8 release (MDA-MB-231) [15] [nM] | max inhibition of FVIIa induced IL-8 release (MDA-MB-231) [15] [%] | other results |
| --- | --- | --- | --- | --- | --- | --- | --- | --- | --- | --- | --- | --- | --- | --- | --- | --- |
| B1 | 1.83 | 0.55 | 3040 | 1.56 | 0.84 | 1770 | 1.03 | 1130 | 2.88 | 5350 | 52 | > 66.6 | 79 | > 200 | 40.1 | binding result [2]: no binding (tested: 30 µg/mL); EC50 (read off the curve) [13]: ~0.06 µg/mL; Kd [14]: 0.11 nM; % max inhibition of FXa generation (TF (Innovin) [16]): 7%; IC50, inhibition of FXa generation (TF (Innovin) [16]): 0.07 nM; EC50 (read off the curve) [17]: ~0.1 µg/mL |
| B2 |  |  |  |  |  |  |  |  |  |  |  |  | 90 |  |  | binding result [18]: no binding (tested: 30 µg/mL) |
| B3 | 2.25 | 1.77 | 2930 | 0.01 | 0.1 | 2070 | 0.85 | 1220 | 3.16 | 5860 | 57 | 1.05 |  | 22.7 | 74.9 | EC50 [19]: 0.28 nM; binding result [20]: no binding (tested: 30 µg/mL); EC50 of ADCC, Bx-PC3 cells [5]: 0.09 nM; IC50, inhibition of blood coagulation (TF induced clotting time) (TF (Innovin) [21]): 0.7 nM |
